Measurements published in the supplement of paper PMC12042874.
± gives the uncertainty stated by the source.

Test: amyloid nucleation score (Sup35N fusion, yeast selection) (log enrichment); library NNK2; higher = more nucleation; inactive = no reads after selection
In short: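 The nucleation score, computed with DiMSum, is the log enrichment of output over input reads, centred on the mode score of non-aggregating sequences. Sequences with under 100 input reads were dropped. Reads were generated by Illumina sequencing of plasmid inserts from psi-negative yeast with Sup35N fused to peptides of 20 random codons, induced with 100 μM copper sulfate for 24 hours and grown 7 days at 30°C on medium lacking adenine and uracil.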

Substance	amyloid nucleation score
GFRDMGDHIDVREKFSWADA	inactive
GFRIGTLLGTMINSMNCSFI	2.88 ± 0.12
GFRSLNVSRANLCSYIRHLL	0.02 ± 0.44
GFSLNISKCVFLRFIWVFHF	-0.447 ± 1.1
GFTENKIRDVFGVFHFIVGD	0.479 ± 0.8
GFVDTTLCMVNLFYGRKSHL	7.862 ± 0.047
GFVGF	2.68 ± 0.17
GFWFFIYVDCVLCVSPTRIN	-0.663 ± 0.56
GFWKTYNTFVLSWSRTNCLQ	0.431 ± 0.64
GFYYRRSMESGNTFSGCSTA	-0.776 ± 0.62
GGCCSLPLACNKKGCCYWVA	1.84 ± 0.47
GGCSTRWHKDVYDNGDNGDF	-0.545 ± 0.63
GGISNVCLSYVRFQEFVFNV	5.69 ± 0.093
GGLTIAKFCESMVLLRFSRT	0.399 ± 0.32
GGQDDVIGLRKSVMAENRVH	0.537 ± 0.42
GGSKLVLLFE	-0.81 ± 0.76
GGSLPMFWKIMPGRHCGK	-0.019 ± 0.32
GGVHGGFRSYVVAIWYGMLN	-1.37 ± 1.1
GGVYASKYLCGYIKLSLKAS	-0.154 ± 0.3
GHKDSEDGLNTKFFRRSN	inactive
GICRKNDRTSDQRYFVKSL	-0.575 ± 0.53
GIFIFNAFEEMSVGKDSELL	-0.529 ± 0.27
GIGLRLCLSDRLWMRSIYVD	3.56 ± 0.082
GIHCGR	3.24 ± 0.06
GIIAMHSLPRQIGIVLFIAR	3.3 ± 0.088
GIIISRSNKLFFVKCCNN	1.7 ± 0.079

Substance	amyloid nucleation score
GIKDI	-1.05 ± 0.79
GIKHLKGTNDTSMYCHVSIV	0.298 ± 0.4
GILWRGVLVRYVCPVVSTSI	inactive
GIMYGEFMPLR	inactive
GIQGLSLYRLLSPALWSPSG	0.168 ± 0.49
GISRGLILEVTC	1.12 ± 0.43
GITPRKDFFYYTLVDTCLVL	-0.198 ± 0.46
GITSFDTIYCGRVVYQRWLL	0.578 ± 0.81
GIVFVLLLMNVFEVCRSELM	inactive
GKDGTFRVVPRQEDRSAHWL	-0.464 ± 1.1
GKHIGSLSEWTMVHHDGARR	1.21 ± 0.32
GKILVAFLWPISCVR	0.037 ± 0.65
GKITVRDISYVRIWRDSLLY	3.25 ± 0.1
GKMPIRNNKVLLKRSATNLC	5.63 ± 0.067
GKPCH	0.52 ± 0.33
GKSSHG	0.93 ± 0.32
GKTYVGYFLFNLTGTVYFKR	0.004 ± 1.1
GLDCR	0.024 ± 0.44
GLFLRSTP	-0.402 ± 0.42
GLIMVSSVLCTFAGMGDNWA	5.84 ± 0.091
GLIVKLMGIFRNRSETSESQ	4.47 ± 0.083
GLLIGSDDLLASVICVITCS	-1.15 ± 1.1
GLLSCMPCRGINLLPSVIRR	1.21 ± 0.61
GLSGKCLYFISVWYTKFLIS	inactive
GLSNR	0.458 ± 0.28
GLSVKTGQGSGFPDLCVGKR	0.838 ± 0.17

Substance	amyloid nucleation score
GLVFRS	inactive
GLVGPSI	-0.29 ± 0.48
GLVNSTPRKRKLFKGDAVHS	0.321 ± 0.48
GLVRSRVWRRASSPGYGECV	1.3 ± 0.33
GLYGMGIQMGPRISVSYPAA	0.536 ± 0.65
GMEINAYY	0.048 ± 0.65
GMIGNTIGNECTIYLNDQYV	0.825 ± 0.34
GMKCAAFSESVNHRLQFNGT	-0.345 ± 0.33
GMSSIINVELAGQWTWVKFN	4.18 ± 0.066
GMTVR	0.011 ± 0.54
GMVEAR	0.095 ± 0.46
GMVVFVI	0.21 ± 0.51
GMWFLRLSSFTCI	5.722 ± 0.049
GNCCDDCP	1.53 ± 0.24
GNEVRGNTMVENPTMSLVMG	0.712 ± 0.39
GNLLKREFAIVFFSVYKQEA	-0.27 ± 0.76
GNLLVGAKSMVLSRFIGLYR	2.16 ± 0.23
GNMKCQVTLILMSTSDIREL	7.039 ± 0.041
GNQRFVFVLRMGTVGPLHMF	0.836 ± 0.55
GNRSTVLRSNLDVYLQDGTV	1.51 ± 0.32
GPFNKMYAYEIRQTGAFWRQ	-0.098 ± 0.79
GPITWTNSSGCRIPMPSFSE	1.42 ± 0.36
GPLFRFFRHRAFLQSTFSA	-0.342 ± 0.24
GPLGHVGLFV	inactive
GPMRGC	-0.548 ± 1.1
GPRLEGWSPPDRAVLSGCSD	0.656 ± 0.44

Substance	amyloid nucleation score
GPVVIVDNFQYDCLA	-0.109 ± 0.76
GQGDYMRFSDNAGGPYSKLE	1.73 ± 0.24
GQGKRNVSLSNGGDKFNLDV	4.98 ± 0.1
GQIAKVKPVRWKFKTTTWGS	1.26 ± 0.41
GQLNLGCWSYRGSRFWTWLR	inactive
GQNTDVTCQRYERTM	0.329 ± 0.62
GRAPLSNNLMDSVTVESVHM	-0.744 ± 0.28
GRCYIISCPESWHKPMYVAI	0.142 ± 0.34
GRGERCKGSKIGCSRKAKID	0.98 ± 0.3
GRHQVIGMWCSRLFPLVRRS	0.375 ± 0.56
GRMQTKTILKNIECNNDSLM	2.39 ± 0.057
GRNLFSFVFQMLV	0.043 ± 0.29
GRRLKGYVTSGIEDWLKGRM	0.908 ± 0.35
GRSGIFCLPCMLCKFY	6 ± 0.064
GRSSAWFNEGRLW	0.383 ± 0.39
GRVRKSHTVGSACNILYSCA	1.32 ± 0.29
GSCNRKRHDVAYHLKCGMVA	1.09 ± 0.14
GSHKK	-1 ± 1.1
GSIVVNGIGKLGKERRVTSV	0.302 ± 0.21
GSKALVSGGFVSGVKYGKAI	inactive
GSKNFPRPIPDYVWVFTGAI	0.032 ± 0.43
GSNIEGY	-0.512 ± 0.46
GSQVYPPPPMADM	0.426 ± 0.3
GSRCITQVLA	0.157 ± 0.49
GSRHRDLYLGLRLYYTDVEV	-0.763 ± 0.36
GSRPEWARVLGSLEIGCGAK	0.535 ± 0.3

Substance	amyloid nucleation score
GSTVKSIVCDSVWS	0.082 ± 0.65
GSVGGSGIAACGTSDGGTVR	2.02 ± 0.27
GSVRSMVGFNACRTSLYESC	0.012 ± 1
GSVRYWK	-0.685 ± 0.36
GSWFVPRMSLSWAGSETGPQ	inactive
GTCLSFYEFNSWWIIKMFSK	0.657 ± 0.23
GTIYLFRWSFMWRFWMGTGL	-0.644 ± 0.54
GTKKARSGARQCLGWEILWM	0.516 ± 0.43
GTLGFDLKR	-0.507 ± 0.76
GTLPSGICSRKGMPT	0.283 ± 0.28
GTNHWTVRLIYLVLHLDRDG	0.583 ± 0.41
GTNKAYFNASFMD	-0.875 ± 0.44
GTPRFEVNIMFHTVDS	1.57 ± 0.22
GTPVSLNFVLESRTRYQMGA	inactive
GTSIFHRKDGASTDMACQPF	0.14 ± 0.63
GTWKVGQSYVVRVRLFFLLW	-0.369 ± 0.36
GVAELNLN	inactive
GVCMSLEVKNKKLSNEHNS	5.18 ± 0.092
GVCSGFPFVRFRNIYIRRLA	3.22 ± 0.078
GVDLGIRRAFT	0.578 ± 0.62
GVEQFFGRSSAVHL	-0.341 ± 0.79
GVFSY	-0.967 ± 0.29
